Measurements taken from patent publication US20200399344A1 (SHATTUCK LABS, published 2020).
Several values for one entry are separate records, joined by “and”; a condition that tells them apart may be missing. Identical values can stand only once.

B1: mouse CD80-Fc-NKG2A chimeric protein (Fc fusion)
chain: VDEQLSKSVKDKVLLPCRYNSPHEDESEDRIYWQKHDKVVLSVIAGKLKVWPEYKNRTLYDNTTYSLIILGLVLSDRGTYSCVVQKKERGTYEVKHLALVKLSIKADFSTPNITESGNPSADTKRITCFASGGFPKPRFSWLENGRELPGINTTISQDPESELYTISSQLDFNTTRNHTIKCLIKYGDAHVSEDFTWEKPPEDPPDSKNVPRDCGCKPCICTVPEVSSVFIFPPKPKDVLTITLTPKVTCVVVDISKDDPEVQFSWFVDDVEVHTAQTQPREEQFNSTFRSVSELPIMHQDWLNGKEFKCRVNSAAFPAPIEKTISKTKGRPKAPQVYTIPPPKEQMAKDKVSLTCMITDFFPEDITVEWQWNGQPAENYKNTQPIMDTDGSYFVYSKLNVQKSNWEAGNTFTCSVLHEGLHNHHTEKSLSHSPGIIEGRMDTPYTEAKAQINSSMTRTHRDINYTLSSAQPCPHCPKEWISYSHNCYFIGMERKSWNDSLVSCISKNCSLLYIDSEEEQDFLQSLSLISWTGILRKGRGQPWVWKEDSIFKPKIAEILHDECNCAMMSASGLTADNCTTLHPYLCKCKFPI
notes: also called mCD80-Fc-NKG2A; mCD80-Fc-NKG2a
B2: human CD48-Fc-NKG2A chimeric protein (Fc fusion)
chain: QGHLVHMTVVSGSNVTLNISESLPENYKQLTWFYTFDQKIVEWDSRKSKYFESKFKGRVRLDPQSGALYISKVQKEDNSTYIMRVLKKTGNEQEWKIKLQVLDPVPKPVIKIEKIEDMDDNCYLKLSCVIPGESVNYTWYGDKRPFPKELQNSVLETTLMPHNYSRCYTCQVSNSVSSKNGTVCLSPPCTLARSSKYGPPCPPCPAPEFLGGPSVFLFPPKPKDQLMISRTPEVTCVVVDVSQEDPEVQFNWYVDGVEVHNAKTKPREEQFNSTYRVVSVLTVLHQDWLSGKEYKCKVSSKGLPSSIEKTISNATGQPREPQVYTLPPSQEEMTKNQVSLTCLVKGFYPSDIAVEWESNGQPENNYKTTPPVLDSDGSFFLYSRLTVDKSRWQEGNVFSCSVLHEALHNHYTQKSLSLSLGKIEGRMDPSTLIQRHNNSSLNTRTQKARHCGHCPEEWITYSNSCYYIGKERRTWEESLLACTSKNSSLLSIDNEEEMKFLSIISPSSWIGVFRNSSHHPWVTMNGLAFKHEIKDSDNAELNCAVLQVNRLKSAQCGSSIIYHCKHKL
notes: also called hCD48-Fc-NKG2A

What was measured:
[1] = target: T1, anti-mFc IgG antibody (plate-bound); experiment: Fc ELISA: coat Anti-mFc (Jax), detect Anti-mFc-HRP (Jax)
T1 construct: also called anti-Fc antibody
Text: A mouse whole IgG was used to generate a standard curve.

[2] = target: T2, mTGFβ1, recombinant, plate-bound (mouse, UniProt P04202 279-390, limits assumed); experiment: ELISA: coat mTGFB1 (R+D 7666-MB), detection Anti-mFc-HRP
T2 construct: also called recombinant TGFβ1 protein
T2 sequence (P04202 279-390 limits assumed): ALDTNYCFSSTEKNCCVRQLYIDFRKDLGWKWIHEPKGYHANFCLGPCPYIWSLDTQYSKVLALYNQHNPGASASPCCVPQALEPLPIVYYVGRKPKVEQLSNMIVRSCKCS
Method: TGFβ1 is a ligand of TGFBR2. To understand whether the TGFBR2 part of the TGFBR2-Fc-NKG2A chimeric protein can bind TGFβ1, ELISA-based assays were performed. Briefly, recombinant TGFβ1 protein was coated on plates and increasing amounts of the TGFBR2-Fc-NKG2A chimeric protein was added to the plates for capture by the plate-bound recombinant TGFβ1 protein. The chimeric protein bound to the recombinant TGFβ1 protein was detected using an anti-mFc HRP.

[3] = target: T3, HLA class I histocompatibility antigen, alpha chain E (HLA-E), plate-bound recombinant protein (human, UniProt P13747 22-305, limits assumed); experiment: ELISA (single-sided): coat hHLA-E (NOVUS), detect Anti-mFc-HRP (Jax)
T3 construct: no tag named there; also called recombinant HLA-E protein
T3 sequence (P13747 22-305 limits assumed): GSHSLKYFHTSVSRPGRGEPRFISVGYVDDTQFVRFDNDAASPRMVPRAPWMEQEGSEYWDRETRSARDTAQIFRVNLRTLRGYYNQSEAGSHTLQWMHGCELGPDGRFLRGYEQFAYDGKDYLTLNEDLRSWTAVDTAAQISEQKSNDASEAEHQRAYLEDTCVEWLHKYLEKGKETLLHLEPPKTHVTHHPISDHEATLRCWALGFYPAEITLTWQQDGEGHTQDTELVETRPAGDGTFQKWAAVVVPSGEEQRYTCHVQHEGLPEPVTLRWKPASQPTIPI

mCD28, plate-bound = target: T4, mCD28, plate-bound (mouse, UniProt P31041 20-149, limits assumed); experiment: ELISA (single-sided): coat mCD28-Fc (Acro), detect Anti-mFc-HRP (Jax)
T4 sequence (looked up): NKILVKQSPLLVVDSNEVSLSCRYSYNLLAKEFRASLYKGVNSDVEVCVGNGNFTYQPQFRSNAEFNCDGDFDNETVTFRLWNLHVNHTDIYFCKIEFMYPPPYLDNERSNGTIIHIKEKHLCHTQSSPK

mCTLA-4, plate-bound = mCTLA-4, plate-bound (mouse, UniProt P09793 36-162, limits assumed); experiment: ELISA (single-sided): coat mCTLA-4-Fc (Acro), detect Anti-mFc-HRP (Jax)
[4] = target: T5, recombinant human CD2 protein (rhCD2-His) (human, UniProt P06729 25-209); experiment: ELISA: coat rhCD2-His (Acro CD2-H5226), detection Anti-mFc-HRP for mCD80
T5 construct: also called recombinant CD2 protein; not shown: His tag
T5 sequence (looked up): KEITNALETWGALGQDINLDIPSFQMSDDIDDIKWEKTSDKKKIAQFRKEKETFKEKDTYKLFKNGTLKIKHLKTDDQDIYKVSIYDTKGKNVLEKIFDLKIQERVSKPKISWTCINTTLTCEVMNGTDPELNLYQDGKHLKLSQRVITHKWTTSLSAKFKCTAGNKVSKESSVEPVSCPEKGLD
Method: (§1) Recombinant human CD2 (rhCD2) protein was coated on plates. Increasing amounts of the indicated chimeric proteins or Recombinant human CD58-Fc fusion protein (rhCD58-Fc) were added and detected using an anti-mFc-HRP (for mCD80-Fc-NKG2A) or anti-hFc-HRP (for rest of the proteins).
(§2) CD2 is a transmembrane protein in T cells that binds to its ligand CD58 on APC in humans and on CD48 in rodents. To understand whether the CD48 and CD58 parts of the hCD48-Fc-NKG2A, and hCD58-Fc-NKG2A chimeric protein can bind CD2, ELISA-based assays were performed. Briefly, recombinant human CD2 protein (rhCD2-His) was coated on plates and increasing amounts of the hCD48-Fc-NKG2A, hCD58-Fc-NKG2A, and mCD80-Fc-NKG2A chimeric proteins and recombinant hCD58-Fc protein was added to the plates for capture by the plate-bound recombinant CD2 protein. The […] chimeric protein served as a negative control and recombinant hCD58-Fc protein served as a positive control. The hCD48-Fc-NKG2A and hCD58-Fc-NKG2A, chimeric proteins and recombinant hCD58-Fc protein bound to the recombinant CD2 protein was detected using an anti-human Fc HRP. The mCD80-Fc-NKG2A chimeric protein bound to the recombinant CD2 protein was detected using an anti-mouse Fc HRP.

[5] = target: T6, recombinant human 2B4 protein (rh2B4-His) (human, UniProt Q9BZW8-2 22-221, limits assumed); experiment: ELISA: coat rh2B4-His (Sino 10042-H08H), detection Anti-mFc-HRP for mCD80
T6 construct: also called recombinant 2B4-His protein; not shown: His tag
T6 sequence (looked up): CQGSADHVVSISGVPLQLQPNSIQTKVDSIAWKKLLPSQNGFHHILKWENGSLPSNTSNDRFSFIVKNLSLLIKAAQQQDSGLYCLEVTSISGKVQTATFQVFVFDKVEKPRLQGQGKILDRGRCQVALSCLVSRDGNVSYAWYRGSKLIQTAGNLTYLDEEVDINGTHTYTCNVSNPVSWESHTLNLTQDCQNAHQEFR
Method: (§3) Increasing amounts of the indicated chimeric proteins or rhCD48-Fc were added and detected using an anti-mFc-HRP (for mCD80-Fc-NKG2A) or anti-hFc-HRP (for rest of the proteins).
(§4) CD48 is the ligand for 2B4. To understand whether the CD48 parts of the hCD48-Fc-NKG2A chimeric protein can bind 2B4, ELISA-based assays were performed. Briefly, recombinant human 2B4 protein (rh2B4-His) was coated on plates and increasing amounts of the hCD48-Fc-NKG2A and mCD80-Fc-NKG2A chimeric proteins and recombinant human CD48-Fc (rhCD48-Fc) protein was added to the plates for capture by the plate-bound recombinant 2B4 protein. The hCD48-Fc-NKG2A chimeric protein and recombinant human CD48-Fc (rhCD48-Fc) protein bound to the recombinant 2B4 protein was detected using an anti-human Fc HRP. The mCD80-Fc-NKG2A chimeric protein, which was used as a negative control, bound to the recombinant 2B4 protein was detected using an anti-mouse Fc HRP.

[6] = target: T5, recombinant human CD2 protein …; experiment: ELISA: coat rhCD2-His (Acro CD2-H5226), detection Anti-hFc-HRP
Method: as §1, §2

[7] = target: T6, recombinant human 2B4 protein …; experiment: ELISA: coat rh2B4-His (Sino 10042-H08H), detection Anti-hFc-HRP
Method: as §3, §4

[8] = target: T6, recombinant human 2B4 protein …; experiment: ELISA: coat h2B4-His (Sino #10042-H08H), detection printed as Anti-mFc-HRP (Jax 115-036-003)
Method: (§5) CD48 binds 2B4 (CD244), a member of the signaling lymphocyte-activation molecule (SLAM) family. To understand whether the CD48 part of the hCD48-Fc-NKG2A chimeric protein can bind […], ELISA-based assays were performed. Briefly, recombinant 2B4-His protein was coated on plates. Human CD28-His protein coated on negative control plates. Increasing amounts of the hCD48-Fc-NKG2A chimeric protein was added to the plates for capture by the plate-bound recombinant 2B4-His protein. […]

[9] = target: T7, recombinant human CD28-His (rhCD28-His) (human, UniProt P10747 19-152); experiment: ELISA: coat hCD28-His (negative control coat), detection printed as Anti-mFc-HRP (Jax 115-036-003)
T7 construct: also called Human CD28-His protein; recombinant CD28 protein; not shown: His tag
T7 sequence (P10747 19-152 limits assumed): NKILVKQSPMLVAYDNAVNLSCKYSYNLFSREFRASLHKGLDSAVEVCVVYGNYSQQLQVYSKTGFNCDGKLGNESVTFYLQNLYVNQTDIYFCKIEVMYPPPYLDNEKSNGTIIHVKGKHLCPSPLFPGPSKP
Method: as §5

[10] = target: T8, anti-human IgG antibody (plate-bound); experiment: ELISA (single sided Fc): coat Anti-Human IgG (H+L) Jax# 109-005-088, detection HRP Goat anti-human FCgamma
T8 construct: also called anti-human Fc antibody
Method: In another set of experiments, an anti-human IgG antibody was coated on plates and increasing amounts of the hCD48-Fc-NKG2A, hCD58-Fc-NKG2A, and hCD80-Fc-NKG2A chimeric proteins, and a human IgG antibody were added to the plates for capture by the plate-bound […]. The human IgG antibody was used as a positive control and to generate a standard curve. The binding to the anti-human IgG antibody was detected using an anti-human Fcgamma HRP.

[11] = target: T9, recombinant HLA-E-His protein (human, UniProt P13747 22-305, limits assumed); experiment: ELISA: the chimeric protein is the titrated coat (1:3), detection HLA-E-His (Novus NBP2-47435PEP), HRP Anti-6x-His-HRP
T9 construct: also called recombinant HLA-E (HLA-E-His); not shown: His tag
T9 sequence (P13747 22-305 limits assumed): as the sequence (P13747 22-305 limits assumed) above
Method: In a complementary experiment, increasing amounts of the hCD48-Fc-NKG2A, hCD58-Fc-NKG2A, and hCD80-Fc-NKG2A chimeric proteins or a negative control protein was coated on plates. Recombinant HLA-E-His protein was added to the plates for capture by the plate-bound chimeric proteins or the negative control protein. The captured HLA-E-His protein was detected using an anti-6×-His-HRP antibody.

[12] = target: T10, recombinant human 2B4-Fc fusion protein (rh2B4-Fc) (human, UniProt Q9BZW8-2 22-221, limits assumed); experiment: dual ELISA; coat rh2B4-Fc (for SL-048), CD48-Fc-NKG2a titrated, detection HLA-E-His, Anti 6x-His-HRP; the signal needs both bindings
T10 construct: not shown: Fc
T10 sequence (looked up): T6 sequence (looked up)
Method: (i) recombinant human 2B4-Fc fusion protein (rh2B4-Fc) was coated on plates. Increasing amounts of the hCD48-Fc-NKG2A or hCD86-Fc-NKG2A chimeric proteins were added and detected using HLA-E-His. The hCD86-Fc-NKG2A chimeric protein was used as a negative control (Negative control #1). […] (ii) recombinant human CD2-Fc fusion protein (rhCD2-Fc) was coated on plates. Increasing amounts of the hCD58-Fc-NKG2A or hCD86-Fc-NKG2A chimeric proteins were added and detected using HLA-E-His. The hCD86-Fc-NKG2A chimeric protein was used as a negative control (Negative control #2).
To understand whether the hCD48-Fc-NKG2A chimeric protein can bind simultaneously to both 2B4 and HLA-E, the following ELISA experiment was carried out. Briefly, and recombinant 2B4 (rh2B4-Fc) protein was coated on plates. Increasing amounts of the hCD48-Fc-NKG2A chimeric protein was added to the plates for capture by the recombinant human 2B4-Fc (rh2B4-Fc) protein. Further, recombinant HLA-E (HLA-E-His) protein was added to the plate for capture by hCD48-Fc-NKG2A chimeric proteins. The binding of the HLA-E-His protein was detected using an anti-His 6× HRP antibody.

Row | Binder | EC50 [1] | binding result [2] | EC50 [3] | EC50 (mCD28, plate-bound) | EC50 (mCTLA-4, plate-bound) | binding result [4] | binding result [5] | binding result [6] | EC50 (read off the curve) [7] [µg/mL] | EC50 (read off the curve) [8] [µg/mL] | binding result [9] | EC50 (read off the curve) [10] [µg/mL] | EC50 (read off the curve) [11] [µg/mL] | EC50 (read off the curve) [12] [µg/mL]
1 | B1 | 2.02 nM and 1.36 nM | no binding (tested: log[Agonist] about 2.7, ug/ml) | 247 nM and 140 nM | 30.8 nM and 22.6 nM | 0.958 nM and 0.705 nM | no binding (tested: log[Agonist] about 2.7, ug/ml) | no binding (tested: log[Agonist] about 2.7, ug/ml) |  |  |  |  |  |  | 
2 | B2 |  |  |  |  |  |  |  | binds | ~2 | ~2 | no binding (tested: log[Agonist] about 2.7, ug/ml) | ~0.7 | ~2 | ~50
